Test results from patent publication US20260042848A1 (BIOLEGEND, published 2026).
Where a chain is given by its changes, count along the chain named. Values belong to the binder of their own block, whether it stands above or below them.

Assays:
[1] = molecular target: mGypa (mouse Glycophorin A) on transfected BA/F3 cells (mouse, UniProt P14220 1-168); experiment: flow cytometry on mGypa-transfected BA/F3 cells, anti-mouse IgG-APC secondary
[2] = molecular target: T1, native human AXL on non-transfected human cell lines (A-431, A-549, HeLa, MDA-MB-231, NCI-H1299) (human, UniProt P30530 26-894); experiment: flow cytometry, PE conjugate on A-431, A-549, HeLa, MDA-MB-231 and NCI-H1299 cells
T1 construct: Endogenous AXL of carcinoma cell lines; also called human AXL receptor tyrosine kinase; AXL receptor
T1 sequence: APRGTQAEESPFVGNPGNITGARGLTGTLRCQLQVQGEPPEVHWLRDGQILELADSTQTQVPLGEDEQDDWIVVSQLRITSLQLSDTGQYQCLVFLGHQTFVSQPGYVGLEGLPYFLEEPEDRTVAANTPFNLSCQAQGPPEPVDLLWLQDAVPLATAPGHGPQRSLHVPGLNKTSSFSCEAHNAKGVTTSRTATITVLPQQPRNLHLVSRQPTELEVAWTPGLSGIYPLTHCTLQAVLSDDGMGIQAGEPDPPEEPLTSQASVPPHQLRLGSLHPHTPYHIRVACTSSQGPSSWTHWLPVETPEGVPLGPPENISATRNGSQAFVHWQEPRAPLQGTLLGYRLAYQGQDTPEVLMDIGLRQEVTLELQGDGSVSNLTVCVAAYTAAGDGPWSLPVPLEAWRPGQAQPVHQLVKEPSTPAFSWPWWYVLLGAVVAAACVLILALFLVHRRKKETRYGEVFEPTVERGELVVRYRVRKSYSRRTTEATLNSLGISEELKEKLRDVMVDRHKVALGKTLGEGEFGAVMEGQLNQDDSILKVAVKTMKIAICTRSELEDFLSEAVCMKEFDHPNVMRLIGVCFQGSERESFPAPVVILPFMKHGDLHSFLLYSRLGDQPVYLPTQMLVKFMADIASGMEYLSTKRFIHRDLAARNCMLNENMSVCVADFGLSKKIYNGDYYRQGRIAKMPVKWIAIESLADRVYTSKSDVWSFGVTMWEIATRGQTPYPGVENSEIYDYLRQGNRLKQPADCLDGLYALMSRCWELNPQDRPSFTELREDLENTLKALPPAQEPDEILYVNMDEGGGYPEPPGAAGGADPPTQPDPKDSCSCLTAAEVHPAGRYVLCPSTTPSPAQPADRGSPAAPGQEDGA
From the text: In contrast, the cell lines used for FIGS. 2F-2G (TH-29 and Jurkat, respectively) are known to be negative for human AXL and were thus used as negative controls.
Once cells reached 80% confluency, cells were detached from the flask using 0.25% Trypsin-0.1% EDTA and suspended in cell staining buffer. […] Cells were washed with FACS buffer and analyzed on a BD Canto II flow cytometer.

[3] = molecular target: T2, Human AXLΔcyto-IG (human AXL lacking the cytoplasmic domain) on transfected BA/F3 cells (human, UniProt P30530 26-472, limits assumed); experiment: flow cytometry on Human AXLΔcyto-IG transfected BA/F3 cells, anti-mouse IgG-APC secondary
T2 construct: GFP is co-expressed from the vector; also called huAXLΔcyto-IG; human AXL transfected BA/F3 cells
T2 sequence: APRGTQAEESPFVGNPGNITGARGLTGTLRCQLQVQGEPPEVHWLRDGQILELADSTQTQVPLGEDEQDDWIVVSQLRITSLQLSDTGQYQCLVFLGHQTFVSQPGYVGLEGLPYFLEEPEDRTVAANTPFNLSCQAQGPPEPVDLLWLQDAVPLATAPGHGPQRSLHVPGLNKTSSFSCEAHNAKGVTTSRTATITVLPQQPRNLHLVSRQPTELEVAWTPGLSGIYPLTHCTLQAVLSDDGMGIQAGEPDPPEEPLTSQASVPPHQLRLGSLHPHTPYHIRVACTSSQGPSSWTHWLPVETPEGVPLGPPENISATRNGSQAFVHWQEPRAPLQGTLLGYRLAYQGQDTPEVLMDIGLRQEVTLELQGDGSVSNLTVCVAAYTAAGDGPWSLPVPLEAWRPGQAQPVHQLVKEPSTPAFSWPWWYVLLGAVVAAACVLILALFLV
Protocol: (§1) FIG. 1A depicts surface staining on BA/F3 cells transfected with human AXL, and FIG. 1B depicts surface staining on BA/F3 cells transfected with mGypa (mouse Glycophorin A) as a control. BA/F3 cells (IL-3 dependent mouse pro-B cell line) were used to eliminate the possibility of human proteins being expressed. The transfection efficiency was measured by GFP, which is used to visualize/identify cells that have been transfected and are expressing the vector. GFP (or FITC) on the x-axis identifies cells that are positive for GFP (i.e., cells that have been transfected). […] Cells were then washed and stained with a secondary antibody (anti-mouse IgG-APC).
(§2) In a first experiment, exemplary anti-human AXL antibodies were assessed on an IL-3 dependent murine pro B cell line (BA/F3, RIKEN CELL BANK, Cat #RCB4476), transfected with Human AXLΔcyto-IG (Ba/F3 cells were retrovirally transduced with human AXL lacking the cytoplasmic domain and GFP). […] Cells were then washed twice with FACS wash buffer and stained with anti-mouse IgG-APC secondary antibody for 15 minutes. Cells were washed with FACS buffer and analyzed on a BD Canto II and corresponding data was analyzed by FlowJo.

[4] = molecular target: T3, hAXL recombinant protein (Sino Biological, Catalog #10279-H08H) (human, UniProt P30530 26-449); experiment: pre-incubation of antibody with soluble recombinant human AXL, then flow cytometry on human AXL-transfected BA/F3 cells (FIG. 3B)
T3 construct: Bought soluble protein; also called human AXL recombinant protein; recombinant human AXL protein
T3 sequence: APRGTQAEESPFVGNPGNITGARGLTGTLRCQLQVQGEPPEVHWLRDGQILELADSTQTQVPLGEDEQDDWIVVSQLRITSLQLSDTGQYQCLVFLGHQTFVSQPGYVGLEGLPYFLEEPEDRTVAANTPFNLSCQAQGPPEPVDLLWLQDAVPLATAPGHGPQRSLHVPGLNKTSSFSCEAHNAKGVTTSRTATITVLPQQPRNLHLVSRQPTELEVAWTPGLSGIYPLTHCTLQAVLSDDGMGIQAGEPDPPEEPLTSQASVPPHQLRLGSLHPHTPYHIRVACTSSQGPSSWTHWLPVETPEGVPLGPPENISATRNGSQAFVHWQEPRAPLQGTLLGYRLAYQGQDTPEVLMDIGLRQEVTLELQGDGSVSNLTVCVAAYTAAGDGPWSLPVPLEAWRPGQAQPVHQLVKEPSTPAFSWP
Protocol: (§3) In each case, cell populations of interest were selected by setting and displaying gates (for visual comparison purposes) based on the corresponding isotype control.
(§4) PE conjugated mIgG1 and mIgG2a, or PU-IgG1 were used as controls. After incubation, 2×10⁶/100 μL of huAXLΔcyto-IG transfected BA/F3 cells were added to each tube, and cells were acquired on a BD Canto II and corresponding data was analyzed by FlowJo.

[5] = molecular target: T3, hAXL recombinant protein (Sino …); experiment: pre-incubation of antibody with soluble recombinant human AXL, then flow cytometry on human AXL-transfected BA/F3 cells (FIG. 3D)
Protocol: as §3, §4

[6] = molecular target: T2, Human AXLΔcyto-IG (human AXL lacking …); experiment: flow cytometry on human AXL-transfected BA/F3 cells, anti-mouse IgG-APC secondary
Protocol: as §1, §2

B1: AB3 (antibody, V domains shown)
VH: QIQLVQSGPELKKPGETVKISCKASGYTFTNYGMNWVKQAPGKGLKWMGWINTYIGEPTYADDFKGRFAFSLETSASTAYLQINNLKNEDMGTYFCARGTTFYAMDYWGQGTSVTVSS
VL: EIVLTQSPTTMAASPGEKITITCSASSSISSNYLHWYQQKPGFSPKLLIYRTSNLASGVPARFSGSGSGTSYSLTIGTMEAEDVATYYCQQGSSILTFGAGTKLELK
notes: Mouse hybridoma monoclonal; also called antibody 3; PE-AB3
binding result [1]: no binding (tested: 1 ug (printed 'lug'))

B4: AB1 (antibody, V domains shown)
VH: DVQLQESGPDLVKPSQSLSLTCTVTGYSITSAYSWHWIRQFPGNKLEWMGYIHYSGSTNYNPSLKSRISITRDTSKNQFFLQLNSVTTEDTATYYCARSLWFYAMDYWGQGTSVTVSS
VL: DVQITQSPSYLAASPGETITINCRASKSISKYLAWYQEKPGKTNKLLIYSGSTLQSGIPSRFSGSGSGTDFTLTISSLEPEDFAMYYCQQHNEYPWTFGGGTKLEIK
notes: Mouse hybridoma monoclonal; also called antibody 1; PU-conjugated AB1
binding result [5]: binds
binding result [6]: binds
binding result [1]: no binding (tested: 1 ug (printed 'lug'))

B5: AB2 (antibody, V domains shown)
VH: B4 VH
VL: DIQMNQSPSSLSASLGDTITITCHASQNINVWLNWYQQKPGNIPKLLIYKASNLHTGVPSRFSGSGSGTGFTLTISSLQPEDIATYYCQQGQSYPLTFGGGTKLEIK
notes: Mouse hybridoma monoclonal; also called antibody 2; PE-AB2
binding result [1]: no binding (tested: 1 ug (printed 'lug'))

Continued, in another order:

binding result [2]: binds
binding result [3]: binds
binding result [4]: binds
B2: AB5 (antibody, V domains shown)
VH: B1 VH with I55T, G92A, T100D, T101R
VL: B1 VL with A61T, L96F, A100S, L106I
notes: Mouse hybridoma monoclonal; also called antibody 5; PE-AB5
binding result [1]: no binding (tested: 1 ug (printed 'lug'))

binding result [2]: binds
binding result [3]: binds
binding result [4]: binds
B3: AB6 (antibody, V domains shown)
VH: EVNLVESGGGLVQPGGSLKLSCATSGFTFSDYYMYWVRQTPEKRLEWVAYISNGGGSTYYPDTVKGRFTISRDNAKNTLYLQMSRLKSEDTAMYYCARLHFYAMDYWGQGTSVTVSS
VL: DIVMTQSHKFMSTSVGDRVSITCKASQDVSTAVAWYQQKPGQSPKLLIYWASTRHTGVPDRFTGSGSGTDYTLTISSVQAEDLALYYCQQHYNTPFTFGSGTKLEIK
notes: Mouse hybridoma monoclonal; also called antibody 6; PE-AB6
binding result [1]: no binding (tested: 1 ug (printed 'lug'))

binding result [2]: binds
binding result [3]: binds
binding result [4]: binds
B6: AB4 (antibody, V domains shown)
VH: B4 VH with N84S
VL: B4 VL with N22K, Q55H
notes: Mouse hybridoma monoclonal; also called antibody 4; PE-AB4
binding result [1]: no binding (tested: 1 ug (printed 'lug'))
